The source of these data is US20260007698A1 (published 2026).

Assay [1] deals with T1, VCY (Variable charge Y-linked) CT antigen; peptide VCY-23 peptide on HLA-A*11:01 (human).
T1 peptide: SSQPSPSGPK
Nature of the assay: multimer staining.

The target of assay [2] is T2, VCX; peptide VCX-23 peptide on HLA-A*11:01 (human).
T2 peptide: SSQPSPSDPK
Nature of the assay: killing.

B1: VCY-23 specific TCR (TCR, V domains shown)
Valpha: RKEVEQDPGPFNVPEGATVAFNCTYSNSASQSFFWYRQDCRKEPKLLMSVYSSGNEDGRFTAQLNRASQYISLLIRDSKLSDSATYLCVVTFDNYGQNFVFGPGTRLSVLP
Vbeta: NAGVTQTPKFRVLKTGQSMTLLCAQDMNHEYMYWYRQDPGMGLRLIHYSVGEGTTAKGEVPDGYNVSRLKKQNFLLGLESAAPSQTSVYFCASSYTYNYNEQFFGPGTRLTVL
On to B1, for which the binding result in assay [1] is “recognises”; in assay [2], “no recognition”.
